Numbering of substitutions follows the chain as printed. “And” between values parts separate entries of the source, which are not always exact repeats. Equal entries are not always repeated. Where two headings read alike, the source gives them in different places.
Legend:
[1] = target: T1, HLA-A2/WT1RMF complex on cells (human); assay: flow cytometry on peptide-pulsed T2 cells, anti-human Fc secondary, MFI
T1 construct: also called RMF peptide-pulsed T2 cells; SKM-1 cells
Source text: (§1) We first measured the binding specificity on peptide-pulsed T2 cells by the IgG binders generated from phage display by flow cytometry. […] Cells were acquired on FACS LSR II (BD), and data are presented as mean fluorescence intensity (MFI) of PE in Graphpad Prism.

[2] = target: HLA-A2 with MED13L peptide … on peptide-pulsed T2 cells (human); assay: as above
Source text: as §1

CD3 = target: T2, CD3 (Homo sapiens (Human), UniProt P07766 23-126); assay: method not stated
T2 construct: also called human CD3

[3] = target: HLA-A2 on unpulsed T2 cells (human); assay: flow cytometry on unpulsed T2 cells, anti-human IgG-Fc PE secondary, MFI
Source text: (§2) Cells were acquired on FACS LSR II (BD), and data are presented as mean fluorescence intensity (MFI) of PE in Graphpad Prism.

[4] = target: T1, HLA-A2/WT1RMF complex on cells; assay: flow cytometry on peptide-pulsed T2 cells, anti-human IgG-Fc PE secondary, MFI
Source text: as §1

[5] = target: T3, HLA-A2/WT1VLD complex on VLD peptide-pulsed T2 cells (human); assay: as above
Source text: as §1

[6] = target: T1, HLA-A2/WT1RMF complex on cells; assay: as above; remark: listed apart in the source
Source text: as §1

[7] = target: T3, HLA-A2/WT1VLD complex on VLD …; assay: as above; remark: listed apart in the source
Source text: as §1

[8] = target: T4, HLA-A2/WT1VLD complex (soluble) (human); assay: SPR, pMHC captured by anti-His
T4 construct: also called HLA-A02/WT1VLD pMHC; HLA-A02/VLD pMHC
Procedure: (§3) For determination of avidity and specificity of the HLA-A2/WT1×CD3 bispecific antibodies to HLA-A2/WT1RMF, SPR experiments were again performed at 25° C. on a Biacore T200 with HBS-EP as running buffer (0.01 M HEPES pH 7.4, 0.15 M NaCl, 0.005% Surfactant P20 (GE Healthcare)). […] The HLA-A2/WT1RMF or HLA-A2/WT1VLD was captured for 30 sec and 10 μl/min at 5 or 10 nM (for the bispecific antibody or IgG measurement, respectively). […] The dissociation phase was monitored for 240 sec and triggered by switching from the sample solution to HBS-EP. The chip surface was regenerated after every cycle using an injection of 10 mM glycine pH 2 for 60 sec. Bulk refractive index differences were corrected for by subtracting the response obtained on the reference flow cell (which contains the anti-His antibody, but without HLA-A2/WT1RMF captured on it). Even though it is a 2:1 interaction (analyte is bivalent) the affinity constants were derived from the kinetic rate constants by fitting to a 1:1 Langmuir binding using the BIAeval software (GE Healthcare).

[9] = target: T5, HLA-A2/WT1RMF complex (soluble) (human); assay: SPR, antibody captured (anti-human Fc), pMHC in solution; affinity
T5 construct: also called HLA-A02/WT1RMF pMHC; HLA-A02/RMF pMHC
Procedure: The bispecific constructs were captured for 30 s at 5 nM. […] The dissociation phase was monitored for 120 s and triggered by switching from the sample solution to HBS-EP. The chip surface was regenerated after every cycle using an injection of 3M MgCl₂ at 10 μl/min for 30 sec. Bulk refractive index differences were corrected for by subtracting the response obtained on the reference flow cell which contains the anti-human Fc antibody, but without bispecific construct captured on it. The affinity constants were derived from the kinetic rate constants by fitting to a 1:1 Langmuir binding using the BIAeval software (GE Healthcare).

[10] = target: T5, HLA-A2/WT1RMF complex (soluble); assay: SPR, pMHC captured (anti-His), bivalent antibody in solution; avidity, average
Procedure: as §3

[11] = target: HLA-A2 on unpulsed T2 cells (human); assay: flow cytometry on unpulsed T2 cells, anti-human IgG-Fc PE secondary, MFI; remark: listed apart in the source
Source text: as §2

[12] = target: T1, HLA-A2/WT1RMF complex on cells; assay: flow cytometry on peptide-pulsed T2 cells, anti-human IgG-Fc PE secondary, MFI; remark: listed apart in the source
Source text: as §1

[13] = target: T3, HLA-A2/WT1VLD complex on VLD …; assay: as above; remark: listed apart in the source
Source text: as §1

[14] = target: T5, HLA-A2/WT1RMF complex (soluble); assay: SPR, pMHC captured (anti-His), bivalent antibody in solution; apparent KD (avidity), average
Procedure: as §3

[15] = target: T1, HLA-A2/WT1RMF complex on cells; assay: flow cytometry on peptide-pulsed T2 cells, anti-human IgG-Fc PE secondary, MFI; remark: listed apart in the source
Source text: as §1

[16] = target: T3, HLA-A2/WT1VLD complex on VLD …; assay: as above; remark: listed apart in the source
Source text: as §1

[17] = target: T3, HLA-A2/WT1VLD complex on VLD …; assay: as above; remark: listed apart in the source
Source text: as §1

[18] = target: HLA-A2 on unpulsed T2 cells (human); assay: flow cytometry on unpulsed T2 cells, anti-human IgG-Fc PE secondary, MFI; remark: listed apart in the source
[19] = target: T1, HLA-A2/WT1RMF complex on cells; assay: flow cytometry on peptide-pulsed T2 cells, anti-human IgG-Fc PE secondary, MFI; remark: listed apart in the source
Source text: as §1

[20] = target: T3, HLA-A2/WT1VLD complex on VLD …; assay: as above; remark: listed apart in the source
Source text: as §1

[21] = target: T1, HLA-A2/WT1RMF complex on cells; assay: as above; remark: listed apart in the source
Source text: as §1

[22] = target: T3, HLA-A2/WT1VLD complex on VLD …; assay: as above; remark: listed apart in the source
Source text: as §1

B1: ESK1-TCB (bispecific antibody, V domains shown)
VH 1: QMQLVQSGAEVKEPGESLRISCKGSGYSFTNFWISWVRQMPGKGLEWMGRVDPGYSYSTYSPSFQGHVTISADKSTSTAYLQWNSLKASDTAMYYCARVQYSGYYDWFDPWGQGTLVTVSS
VL 1: not shown
VH 2: not shown
VL 2: QAVVTQEPSLTVSPGGTVTLTCGSSTGAVTTSNYANWVQEKPGQAFRGLIGGTNKRAPGTPARFSGSLLGGKAALTLSGAQPEDEAEYYCALWYSNLWVFGGGTKLTVL
[1]
  EC50 (read off the curve): ~1 µg/mL
[2]
  EC50 (read off the curve): ~0.3 µg/mL

B2: CD3 binder CH2527 (antibody, V domains shown)
VH: not shown
VL: B1 VL 2
CD3
  Kd: 85 to 130 nM

B3: 5E11-IgG (antibody, V domains shown)
VH: QVQLVQSGAEVKKPGSSVKVSCKASGGTFSSYAISWVRQAPGQGLEWMGGIIPIFGTANYAQKFQGRVTITADKSTSTAYMELSSLRSEDTAVYYCARSSYDLYSFDYWGQGTTVTVSS
VL: DIQMTQSPSTLSASVGDRVTITCRASQSISSWLAWYQQKPGKAPKLLIYDASSLESGVPSRFSGSGSGTEFTLTISSLQPDDFATYYCQQYSFPPMITFGQGTKVEIK
[3]
  binding result: no binding (tested: 10 µg/ml)
[4]
  EC50 (read off the curve): ~0.7 µg/mL
[5]
  binding result: no binding (tested: 10 µg/ml)

B4: 13B04-IgG (antibody, V domains shown)
VH: EVQLLESGPGLVKPSETLSLTCTVSGGSISSYYWSWIRQPPGKGLEWIGYIYYSGSTNYNPSLKSRVTISVDTSKNQFSLKLSSVTAADTAVYYCARVSYNGLDYWGQGTLVTVSS
VL: B3 VL with S92N, F93M, P94W, P95N, M96P, I97V
[6]
  binding result: no binding (tested: 1 µg/ml)
[7]
  EC50 (read off the curve): ~0.06 µg/mL

B5: 33H09-huIgG1 (antibody, V domains shown)
VH: B3 VH with S99G, Y104F, F106L
VL: DIQMTQSPSTLSASVGDRVTITCRASQSISSWLAWYQQKPGKAPKLLIYDASSLESGVPSRFSGSGSGTEFTLTISSLQPDDFATYYCQQYYDGITFGQGTKVEIK
notes: also called 33H09-IgG
[8]
  binding result: no binding (tested: 1.23 to 100 nM)
[9]
  Kd: 70 nM and 69 nM
  koff: 0.116 s⁻¹ and 0.124 s⁻¹
  kon: 1.67e+06 M⁻¹ s⁻¹ and 1.8e+06 M⁻¹ s⁻¹
[10]
  koff: 0.00357 s⁻¹
  kon: 4.74e+06 M⁻¹ s⁻¹
[11]
  binding result: no binding (tested: 1 µg/ml)
[12]
  EC50 (read off the curve): ~0.06 µg/mL
[13]
  binding result: no binding (tested: 1 µg/ml)
[14]
  Kd: 0.75 nM

B6: 5C01-IgG (antibody, V domains shown)
VH: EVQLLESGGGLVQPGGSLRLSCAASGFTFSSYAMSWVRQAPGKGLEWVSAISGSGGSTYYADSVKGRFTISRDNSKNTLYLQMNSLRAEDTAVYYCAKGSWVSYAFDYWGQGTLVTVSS
VL: B3 VL with F93I, P94W, P95F, M96P, I97Y
[15]
  binding result: no binding (tested: 1 µg/ml)
[16]
  EC50 (read off the curve): ~0.02 µg/mL

B7: 11G06-huIgG1 (antibody, V domains shown)
VH: B3 VH with S99T, S100G, Y101P, D102Y, L103Y, Y104G, S105A
VL: B5 VL with Y91G, Y92F, D93R, I95Y
notes: also called 11G06-IgG
[17]
  binding result: binds

B8: CD3 binder V9 (antibody, V domains shown)
VH: EVQLVESGGGLVQPGGSLRLSCAASGYSFTGYTMNWVRQAPGKGLEWVALINPYKGVSTYNQKFKDRFTISVDKSKNTAYLQMNSLRAEDTAVYYCARSGYYGDSDWYFDVWGQGTLVTVSS
VL: DIQMTQSPSSLSASVGDRVTITCRASQDIRNYLNWYQQKPGKAPKLLIYYTSRLESGVPSRFSGSGSGTDYTLTISSLQPEDFATYYCQQGNTLPWTFGQGTKVEIK
CD3
  Kd: 35 to 50 nM

B9: 11D06-huIgG1 (antibody, V domains shown)
VH: QVQLVQSGAEVKKPGSSVKVSCKASGGTFSSYAISWVRQAPGQGLEWMGGIIPIFGTANYAQKFQGRVTITADKSTSTAYMELSSLRSEDTAVYYCARSIELWWGGFDYWGQGTTVTVSS
VL: B5 VL with S76G, Y92E, G94Y, I95T
notes: also called 11D06-IgG; 11D06 IgG
[8]
  binding result: no binding (tested: 1.23 to 100 nM)
[9]
  Kd: 35 nM and 34 nM
  koff: 0.0378 s⁻¹ and 0.0357 s⁻¹
  kon: 1.08e+06 M⁻¹ s⁻¹ and 1.04e+06 M⁻¹ s⁻¹
[10]
  koff: 0.00181 s⁻¹
  kon: 2.97e+06 M⁻¹ s⁻¹
[18]
  binding result: no binding (tested: 10 µg/ml)
[19]
  EC50 (read off the curve): ~0.06 µg/mL
[20]
  binding result: no binding (tested: 10 µg/ml)
[14]
  Kd: 0.61 nM

B10: 11B09-IgG (antibody, V domains shown)
VH: B9 VH with S99V, I100P, E101G, L102R, W104Y, G106A, F107M
VL: DIQMTQSPSTLSASVGDRVTITCRASQSISSWLAWYQQKPGKAPKLLIYDASSLESGVPSRFSGSGSGTEFTLTISSLQPDDFATYYCQQEDDYPLTFGQGTKVEIK
[21]
  binding result: no binding (tested: 1 µg/ml)
[22]
  EC50 (read off the curve): ~0.02 µg/mL
